Reference: publication PMC5209314, “Purification and characterization of a novel glutamate dehydrogenase from Geotrichum candidum with higher alcohol and amino acid activity” (AMB Express, 2017)

How the values were obtained:
[1] = substrate: N; assay: purified protein; conditions: pH 4.0, 30 °C, printed unit doubtful: tested 5-50 mmol/L and same column is mM in abstract, so probably mmol/L
[2] = substrate: NC(=O)C1=CN([C@@H]2O[C@H](COP(=O)(O)OP(=O)(O)OC[C@H]3O[C@@H](n4cnc5c(N)ncnc54)[C@H](OP(=O)(O)O)[C@@H]3O)[C@@H](O)[C@H]2O)C=CC1; assay: purified protein; assay type: biochemical, Geotrichum candidum; conditions: pH 4.0, 30 °C, printed unit doubtful: tested 0.01-0.1 mmol/L and same column is mM in abstract, so probably mmol/L, varied: cofactor
[3] = substrate: N[C@@H](CCC(=O)O)C(=O)O; assay: purified protein; assay type: biochemical, Geotrichum candidum; conditions: NADP+, pH 4.0, 30 °C, Table 2 header prints μmol/L, abstract mM, competitive with hexanol, b65 prints other Michaelis constants (61.02 and 13.43 mM, both called glutamate)
[4] = substrate: O=C(O)CCC(=O)C(=O)O; assay: purified protein; assay type: biochemical, Geotrichum candidum; conditions: NADPH, NH4+, pH 4.0, 30 °C, Table 2 header prints μmol/L, abstract mM
[5] = substrate: CC(C)CCO; assay: GC of substrate decrease, Lineweaver-Burk; assay type: biochemical, Geotrichum candidum; conditions: NADP+, pH 4.0, 30 °C, Table 2 header prints mol/L, abstract mM
[6] = substrate: CCCCCCO; assay: GC of substrate decrease, Lineweaver-Burk; assay type: biochemical, Geotrichum candidum; conditions: NADP+, pH 4.0, 30 °C, Table 2 header prints mol/L, abstract mM

B1: glutamate dehydrogenase (GDH) from Geotrichum candidum S12 (Geotrichum candidum) (protein)
chain: MVQPSEPEFEQAYNELLSTLKDSTLFEKRPELEKVIPIVSIPERVLQFRVVWEDDNGVAQVNRGYRVQFNSALGPYKGGLRFHPTVNLSILKFLGYEQIFKNALTGLNMGGGKGGSDFDPKGKSDSEIRRFCVAFMGELHRHIGADTDVPAGDINVGGREIGYLFGAYKKFKNTWEGVLTGKGLTWGGSLIRPEATGYGVVYYVEKMIEYATQGKESFAGKTVAISGSGNVAQYAALKVIELGGTVVSLSDSKGAFIATTAEGFTPAEIAEIADIKVSHAQLSTLADKFASKFKYLEGARPWVHVKADVALPCATQNEVSGEEAEALVANGTKFIAEGSNMGSTQEAIDVFEAERLKNPQGIWYAPGKAANAGGVAVSGLEMAQNSQRGNWSTEEVDQRLKEIMVNIFNTSVSTAVEYSSEKGDSLPSLVKGANIAGFVKVADAMHDHGDFW
notes: identified by PMF similarity to Yaliof17820p (Yarrowia homologue)
Work on B1 yielded a Km [1] of 0.00535 mM, a Km [2] of 0.00013 mM and a Km [3] of 41.74 mM. For the same protein, the Km [4] was 4.01 mM, the Km [5] was 19.37 mM and the Km [6] was 20.37 mM.
